Measurements from patent US20240369485A1, “FLUORESCENT SENSOR FOR MONITORING CALCIUM DYNAMICS” (priority 2021, published 2024).

Assays:
[1] = Quantum yield, extinction coefficient, and brightness determination; type: physicochemical; set-up: key to Brightness: extinction coefficient × quantum yield
Method: Quantum yield, extinction coefficient, and brightness determination. The quantum yield values of all the variants were determined by measuring the emitted fluorescence intensities and absorbance intensities of the chromophore at different protein concentrations. The wildtype was used as a reference to calculate quantum yield. Brightness was defined as a visual perception in which a source appears to emit or reflect a given amount of light, which was obtained by multiplying the extinction coefficient and the quantum yield.

HeLa cells [2] = test: In situ Ca^2+ binding affinity in HeLa cells with stepwise Ca^2+ concentrations; type: cell-based
Method: (§1) Cell culture and transfection. C2C12, HEK293 and HeLa cells were cultured and maintained in Dulbecco's modified Eagle's medium (DMEM) supplemented with 10% fetal bovine serum (FBS) and high glucose (4.5 g/L) at 37° C. R-CatchER, G-CatchER2, G-CEPIA1er, R-CEPIA1er or R-CatchER with GFP-CaSR (wt and mutations) were transfected into cells using Lipofectamine 3000 (Life Technologies), following the manufacturer's instructions. Seed cells onto sterilized 22 mm×40 mm glass microscope slides in 6 cm dishes until about 70% confluency, the day of transfection. The next day, 2 μg of plasmid were mixed with transfection reagent in the reduced serum media Opti-MEM for 4-6 h at 37° C. The media was then replaced with 3 mL of fresh DMEM and incubated at 37° C. for 48 h.

HeLa cells [3] = type: cell-based
Method: as §1
HILO imaging of R-CatchER, G-CatchER2, R-CEPIA1er, and G-CEPIA1er. Samples were mounted in a perfusion chamber and imaged using a customized optical microscope based on a Nikon TiE inverted microscope equipped with a 100×TIRF objective (N.A. 1.49, Nikon) and a highly sensitive electron multiplying charge-coupled device (EMCCD) camera (Andor Ixon Ultra 888). A fiber-coupled 488 nm or 561 nm laser (LBX-488/LCX-561, Oxxius) was first collimated and then focused to the back focal plane of the TIRF objective using an achromatic optical lens of 200 mm focal length (AC254-200-A, Thorlabs). To achieve HILO imaging, the incident angle of the excitation laser was adjusted to be slightly smaller than the critical angles at the cell-coverslip interface through translational movement the optical axis of the incident light beam by a motorized stage (SGSP-20-20, Sigma Koki). An efficient excitation volume of few micrometers was obtained under HILO illumination. A quad-band filter set (TRF89901v2, Chroma) was used for filtering out the fluorescence background. Fluorescence images of samples were recorded at 1 Hz as the concentration of ER Ca^2+ was perturbed by perfusion of 3 μM Thapsigargin, 0.5 mM 4-cmc, 1 mM 4-cmc, 100 μM ATP, or 100 μM histamine.

[4] = system: primary hippocampal neurons; test: Wide-field imaging in neuronal cultures; type: cell-based, mice; conditions: for decrease of fluorescence upon DHPG: 100 μM DHPG; for ER Ca^2+ transient ΔF/F: field stimulation 50 Hz for 1 s
Method: Wide-field imaging in neuronal cultures. Primary neuronal cultures were generated from embryonic day 18 or postnatal day 0-1 mice and plated onto poly-D-lysine (Sigma) coated coverslips as previously described. Neurons were maintained in neuronal feeding media (Neurobasal media, ThermoFisher Scientific) containing 1% GlutaMAX (ThermoFisher Scientific), 2% B-27 (ThermoFisher Scientific), 0.002 mg/mL Gentamicin (Sigma) with or without 10 μM 5 fluoro 2-deoxyuridine (Sigma-Aldrich) and fed every 3-4 days via half neuronal feeding media exchanges. Neurons were transfected with plasmid(s) through either lipofection or electroporation. For lipofection, at 11-12 days in vitro, cells were transfected using Lipofectamine 2000 Reagent (ThermoFisher Scientific) with a modified protocol. For electroporation, dissociated cells in suspension were electroporated in a cuvette using the 4D-Nucleofector system (Lonza) following the manufacturer's instructions prior to plating in FBS-containing Neurobasal media without B-27. Full media exchange was performed the following day with serum- and antibiotics-free Neurobasal media.
Neurons were imaged between 12-15 days in vitro, using an inverted (Olympus IX71) or an upright (Scientifica HyperScope) wide-field fluorescence microscope equipped with an epi-fluorescence turret (Olympus), a scientific CMOS camera (Hamamatsu ORCA-Flash4.0 LT), a mercury lamp (Olympus) or an LED light source (CoolLED pE-300ultra), and an oil- (Olympus Uapo/340 40×/1.35NA) or water-immersion objective (Nikon CFI75 LWD 16×W 0.8NA), respectively. R-CatchER or jGCaMP7s was viewed using a TRITC (Chroma 41002) or FITC (Chroma 41001) fluorescence filter cube, respectively. Images were obtained every 5 s or 33.3 ms using Micro-Manager (the Vale lab, UCSF) at room temperature.
The external solution contained 150 mM NaCl, 3 mM KCl, 2 mM MgCl2, 2 mM CaCl2), 10 mM HEPES, and 20 mM glucose at a pH of 7.35. mGluR agonists were applied in the bath. Field electrical stimulation was applied with a stimulus isolator (World Precision Instruments A360) via an imaging chamber with two platinum wires (Warner Instruments RC-21BRFS). Trains (2 ms to 2 s at 50 HZ) of pulses (10 mA for 2 ms) were controlled by pClamp 10 software and Digidata 1440A data acquisition system (Molecular Devices). Imaging data were processed and analyzed using in-house and NeuroMatic (Jason Rothman) macros in Igor Pro 8 (WaveMetrics).

B1: R-CatchER: red genetically encoded Ca^2+ indicator, mApple A145E/K198D/R216D, SEQ ID NO: 12 (protein)
chain: EENNMAIIKEFMRFKVHMEGSVNGHEFEIEGEGEGRPYEAFQTAKLKVTKGGPLPFAWDILSPQFMYGSKVYIKHPADIPDYFKLSFPEGFRWERVMNFEDGGIIHVNQDSSLQDGVFIYKVKLRGTNFPSDGPVMQKKTMGWEESEERMYPEDGALKSEIKKRLKLKDGGHYAAEVKTTYKAKKPVQLPGAYIVDIDLDIVSHNEDYTIVEQYEDAEGRHSTGGMDELYK
In the case of B1, the Brightness ([1]; Apo) is reported as 0.13 ± 0.02, the “Extinction coefficient” value ([1]; Apo) is reported as 44000 M⁻¹ cm⁻¹ and the Fluorescence quantum yield ([1]; Apo) is reported as 0.30 ± 0.02. The Brightness ([1]; Holo) was 0.30 ± 0.03, the “Extinction coefficient” value ([1]; Holo) was 60000 M⁻¹ cm⁻¹ and the Fluorescence quantum yield ([1]; Holo) was 0.50 ± 0.03. For the same molecule, the “ε (holo) (×10^4) (M^−1 cm^−1)” value ([1]; Holo) was 6 ×10^4 M^−1 cm^−1, the “ε (apo) (×10^4) (M^−1 cm^−1)” value ([1]; apo) was 4 ×10^4 M^−1 cm^−1 and the “Φ (apo)” value ([1]; apo, quantum yield) was 0.30. For the same molecule, the “Φ (holo)” value ([1]; holo, quantum yield) was 0.50, the Kd (HeLa cells [2]) was 310 ± 50 µM and the “fluorescence decrease ΔF/F” value (HeLa cells [3]; 3 μM Thapsigargin (Tg), 0 mM Ca^2+) was 0.69±0.07. For the same molecule, the “half decay time of the first peak of ER Ca^2+ oscillations” value (HeLa cells [3]; 100 μM histamine) was 1.8 ± 0.1 s, the “half rise time of the first peak of ER Ca^2+ oscillations” value (HeLa cells [3]; 100 μM histamine) was 7.3 ± 0.1 s and the “decrease of fluorescence upon DHPG” value ([4]; primary, first value (dendrites by printed order)) was 0.13±0.02. For the same molecule, the “decrease of fluorescence upon DHPG” value ([4]; primary, second value (branchpoints by printed order)) was 0.08±0.01, the “decrease of fluorescence upon DHPG” value ([4]; secondary, first value (dendrites by printed order)) was 0.12±0.03 and the “decrease of fluorescence upon DHPG” value ([4]; secondary, second value (branchpoints by printed order)) was 0.07±0.01. For the same molecule, the “ER Ca^2+ transient ΔF/F” value ([4]; branchpoints) was 0.077±0.022, the “ER Ca^2+ transient ΔF/F” value ([4]; primary dendrites) was 0.083±0.039 and the “ER Ca^2+ transient ΔF/F” value ([4]; secondary dendrites) was 0.036±0.017. The “ER Ca^2+ transient ΔF/F” value ([4]; soma) was 0.173±0.048.
